In paper PMC5971111 (Nature structural & molecular biology, 2018):

T1: Sec3 (S. cerevisiae, UniProt P33332 1-1336)
T1 sequence: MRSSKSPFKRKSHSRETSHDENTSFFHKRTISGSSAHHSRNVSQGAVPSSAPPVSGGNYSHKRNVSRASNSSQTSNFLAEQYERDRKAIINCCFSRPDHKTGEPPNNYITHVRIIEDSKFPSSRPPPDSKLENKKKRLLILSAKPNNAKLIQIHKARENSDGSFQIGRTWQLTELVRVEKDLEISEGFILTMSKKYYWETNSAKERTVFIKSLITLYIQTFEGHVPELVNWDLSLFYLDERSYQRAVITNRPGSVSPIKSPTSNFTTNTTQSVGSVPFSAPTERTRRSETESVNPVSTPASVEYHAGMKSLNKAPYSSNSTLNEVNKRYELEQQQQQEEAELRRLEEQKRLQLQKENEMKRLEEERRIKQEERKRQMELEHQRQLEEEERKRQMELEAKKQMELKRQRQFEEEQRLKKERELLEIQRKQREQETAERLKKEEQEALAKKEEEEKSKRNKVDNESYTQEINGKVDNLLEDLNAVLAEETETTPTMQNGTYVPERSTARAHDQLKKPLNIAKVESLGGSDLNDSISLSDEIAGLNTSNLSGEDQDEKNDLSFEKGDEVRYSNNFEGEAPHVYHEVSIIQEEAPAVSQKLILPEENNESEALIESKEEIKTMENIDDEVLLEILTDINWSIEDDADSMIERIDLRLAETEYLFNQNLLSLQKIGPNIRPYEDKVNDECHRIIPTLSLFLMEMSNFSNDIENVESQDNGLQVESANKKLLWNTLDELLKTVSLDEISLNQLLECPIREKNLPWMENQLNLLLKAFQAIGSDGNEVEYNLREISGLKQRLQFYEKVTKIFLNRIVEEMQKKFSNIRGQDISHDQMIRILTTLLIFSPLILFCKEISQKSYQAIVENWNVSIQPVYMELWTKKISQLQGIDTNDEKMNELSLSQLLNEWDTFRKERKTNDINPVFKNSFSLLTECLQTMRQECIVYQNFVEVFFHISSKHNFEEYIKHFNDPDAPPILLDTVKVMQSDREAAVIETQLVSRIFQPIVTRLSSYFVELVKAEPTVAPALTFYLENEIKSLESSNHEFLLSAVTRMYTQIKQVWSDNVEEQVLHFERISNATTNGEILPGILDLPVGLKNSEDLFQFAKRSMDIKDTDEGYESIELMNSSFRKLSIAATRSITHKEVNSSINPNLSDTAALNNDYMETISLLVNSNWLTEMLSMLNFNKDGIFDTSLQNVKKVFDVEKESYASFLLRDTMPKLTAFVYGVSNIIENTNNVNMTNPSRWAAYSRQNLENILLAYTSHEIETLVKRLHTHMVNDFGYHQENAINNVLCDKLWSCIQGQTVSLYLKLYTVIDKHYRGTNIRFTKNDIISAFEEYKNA

B1: Sec8 (natural protein)
chain: MDYLKPAQKGRRRGLSINSLSETQQSAMNSSLDHLQNDLNRINLQWNRILSDNTNPLELALAFLDDTSVGLGHRYEEFNQLKSQIGSHLQDVVNEHSQVFNTNVASYGKAVSSIMQAQEQTLNLKNCLKEANEKITTDKGSLQELNDNNLKYTKMIDVLVNIEELLQIPEKIEENIRKENFHQVQILLERGFILMNNKSLKTVEILKPINQQLELQEHLLFNNLIEEIHDIMYSKSNKTNFTRVTNNDIFKIISISHNGFTSLENYLYNIVNIDIMEHSKTINKNLEQFIHDQSLNKGNIMLQENAATQAPLAPSRNQENEGFNRIGFLLKTINNINKLPVAFNIITERAKEEIHNIIVKSTESIRSKHPSLLKMATSLKNDNHFGLPVQDILSIILRECFWEIFLKLLYAIQCHRAIFEMSNILQPTSSAKPAFKFNKIWGKLLDEIELLLVRYINDPELISSNNGSIKPINGATNNAPTLPKRKNPKIFSLEYNIEDNSSVKDQAFELKALLKDIFPGFSVSSNMDLDSIYVKDESFEQDEPLVPPSVFNMKVILDPFLLFTQSTSTIVPSVLTQNTISSLTFFDDYMNKSFLPKIQMTMDYLFTVEVESNNPYALELSDENHNIFKTALDFQRLFYNLLNVFNTANTFREKISYCILDLLNHFYNYYLGLFNSLIGTSDRHLTRKIITAWLQNGILMDQEQKILNGDETLFHEESIELFKEIPHFYQAGKGLSKSDLFNNLTLDTILQFSASVLWILNWLPGLKKAINIDEVSQEPMLDADRLRSSWTFSESMDLNYSNPSSSPNSLGNLKILLDDKASKKFDETIDGFKTLKFKLITILRFNIRALCIYDIGSFFQNTKIWNMDVGSIELDQNIASLISELRRTESKLKQQLPEKEKNSIFIGLDIVNNYALIKGAKSIKVLNHNGIKKMLRNVNVLQHAYRNLSSEPSKINMNVTMNFYSLCGSSEAELFEYIKDNELPHCSVEDLKTILRLQFSEEMHRQLKRQSTSSTKGSIKPSNKRYTEALEKLSNLEKEQSKEGARTKIGKLKSKLNAVHTANEK

Legend:
Sec8 = target: B1; test: […]
Sec3 = target: T1, Sec3; test: […]

| Binder | binding result (Sec8) | binding result (Sec3) |
| --- | --- | --- |
| Sec15 (natural protein) MDQEGQPLLSKDFQQVLLATASGNNSSWTERAVLNNESTDAVKHEPALGQNDVFDLDPLSFDKWVPFLRRALDKNQLDPVIDELENSIEDNFQGLELQLLQDSQMNDKLETSIDEIANIQGMVQDTLSSEISKFQIRLSESANELIVKKQMYVNNKKISLKISEATILITKVVRILELSSKCQELITERKFFKVLQNLDSLEKLYLQEFKNYNFQFLIEIYNSIPFLQKVTKDECINLIRNSLNLNLGKNLIKVGQEFVAIYENELLPQWLETRSKMKLTNFKFNSPIEISMRDESFLAKLNLGEFFQLDDFHDSIMIFQNLNELSVLSGEFNKEYELRKTKLMYPLIWKKNKTAAYQMDSLLRGTGTTPGSTAHDVSTDDPFTQSLSLHFLQDYFLKILGFLLYDINLNKATEFILVDNNYNSTNEFWDGLMDRLSPYLSYFIDEKLKTEEDMIKLKDFLCIYVAILENFKLNIEPLYKILVSIFEKFCSVSLRAFDDEFQILLNDDDFMPLSINDKTLYEKVLKICWMKEGEHLSLPDPTNGEPFAVTLPFSPLYPMTCTLAKKTYSKITAFLSIFYRHELHTLNNILVKTMDDIFNDIVNKKIRSKLESTSREEIAQILVNLDYFIIAAKEFSNFMTRENILQNPDMEIRLSSIKYLAESRKLAETKLIELIDSKISDILETIEIDWQITEVRQDPDISIIDLAQFLEMMFASTLQNLPYSVQTLLIFREFDSLTRQFMGLLLHDTPSTITHESIMNFEVDVNYLESIIPRIFPSTPGTIDSNGYQSPMTPSTPTFPNANGVDAPTLFENNIKSLEATFMELKQCIELLKTQGKDYNEPEIRLRKYSRIRQEDAALLLSKIQHFVSSVEGANGDDTSVMDSSSIFNSESASVIDSNTSRIAKFFNRR | binds | – |
| Sec5 (natural protein) MDRFQIGDEQLLRFYQLKTINPTHSWAQDSSKLNNEEATSNELGVETSFDILKDFKYGNQISIDKESRAYLNDESLSYIRDPLNGQEMSKELQHLPNDSMRLNYLVNSKQFNVKAFLRDMHKQDSFNDLNNSLDRLDSDIQDQSIHLKQLVGKNFTKYVKIKNKLDQIYKEFDEKTNEKNQCDSPKENQINVESLNKKVDEVIRTTTFKLKPLMDNYQKILNYQATKKFIELNKFYFNLPKSLKRCLTNNDFNEFIIEYSKGLTLRRRFNQSSDASQSLVIKRIWTQIENLLVTYKDLIWNSLINSNFNIDQPQETILSLFSKLLNLENFINNNQRESESGNKNTTSSSNENPILRWMSIKMNGFQNELNELSGHMISKIIHSQRLILQNNTNQDKSQGCVELSYYLKINQLFQIISDTGKDSEGLKSTVEPNKVNTISGTSYLNLNCQPSSQGLTDSPTIIEMWLLILKYINDLWKICDQFIEFWEHIEKFLDGTYQNSIINEKRKENILIGDSNIIESYQKSLILKEEQINEVRLKGEEFITSVSQNLISFFTSSQSSLPSSLKDSTGDITRSNKDSGSPLDYGFIPPNCNGLSCLRYLPKIVEPILKFSTELAQLNITTNGITICRNTLSTIINRCVGAISSTKLRDISNFYQLENWQVYETVTFSSKSQDSSKNLTFEYGVTQFPEIVTSFQEVSIKTTRDLLFAYEKLPIINGISVVSYPSKQLLTGIEIQQIISMEAVLEAILKNAAKDKDNPRNSHTILTLTNLQYFRECAFPNILQYFDDAFEWNLASKNLELFSLLSKMESSIFGNYLSDLKINLRDTLEEKFHEINWPMYTSNSFRVGDYIIEALMILIVVHSECFRIGPQLIHKILIETQIFIARYLFEAFKPYVGNLSNDGSLQIIVDLEFFQKVMGPLLEKDTEATLRACLQNCFQNDTNRLQKCINEINPIVSANLKRTAIQFAAFS | binds | binds |
| B1 | – | binds |
